This passage reports stoichiometry N results from publication PMC2664468.

For orientation: stoichiometry N means a count of units in the complex or per binding partner.

In test [1] the target is endogenous vCD30 protein secreted during ECTV infection (Ectromelia virus (ECTV Naval.Cam)). Description: non-reducing SDS-PAGE and Western blot. (In general: In western blotting, separated proteins are transferred to a membrane and probed.)
Test [2] has as its target His-tagged ECTV vCD30 protein (vCD30His) (Ectromelia virus (ECTV)). The test can be described thus: non-reducing SDS-PAGE; purified vCD30His from baculovirus; data not shown.

“endogenous vCD30 protein secreted during ECTV infection (natural protein)” had a stoichiometry N in test [1] of 3.
For “His-tagged ECTV vCD30 protein (vCD30His) (natural protein)”, the stoichiometry N in test [2] stood at 3.
